In this assay the target is microtubules polymerised from bovine brain tubulin (taxol-stabilised) (bovine) (UniProt Q6B856). The assay can be described thus: stopped-flow mant-ADP release kinetics; kinesin·mant-ADP (1:1) mixed with varying microtubule concentrations plus MgATP, 298 K; fitted rate constants against microtubule concentration; apparent.

With “N255K point mutant of the human monomeric kinesin K349 construct (from UniProt P33176 1-349) (domain or fragment)”, the K0.5 (apparent microtubule dissociation constant) amounted to 21.3 µM.

Source of the values: article PMC4383081.
